Data published in US20240327525A1 (VIB VZW, published 2024).
Changes are numbered by the printed parent chain.

B1: humanized variant VHH7h3 (VHH)
VHH: DVQLVESGGGLVQPGGSLRLSCAASGIIFSDNRMDWYRQAPGKQREWVATLASYGWKTYADSVKGRFTISRDNTKNTVYLQMNSLRPEDTAVYYCKASSPVLNDIWGQGTLVTVSS
notes: Made in E. coli, IMAC purified; tag not specified
B2: humanized variant VHH7h1 (VHH)
VHH: B1 VHH with D1E, T74S
notes: as for B1
B3: humanized variant VHH7h2 (VHH)
VHH: B1 VHH with T74S
notes: as for B1
B4: humanized variant VHH8h2 (VHH)
VHH: DVQLVESGGGLVQPGGSLRLSCAASGRTFNTYNWGWFRQAPGKEREFVAAIRWSSSKTSYADSVKGRFTISRDNSKNTVYLQMNSLRPEDTAVYYCAASIVDFTTNPSHFGSWGQGTLVTVSS
notes: as for B1
B5: humanized variant VHH8h1 (VHH)
VHH: B4 VHH with D1E
notes: as for B1
B6: humanized variant VHH8h3 (VHH)
VHH: B4 VHH with P14A
notes: as for B1
B7: anti-CI-M6PR VHH2 (VHH)
VHH: QVQLQESGGGLVQPGGSLRLSCVFSGRTFMSYDVGWFRQAPGKERELLSSITSSSSSPYYAESVKGRFAVSRDGAKKTVYLRMNSLEPEDTAVYYCAARENWRNDWQYWGQTQVTVSS
modifications: Alexa Fluor 488 NHS ester label on amines
notes: Tag not specified
B8: anti-CI-M6PR VHH3 (VHH)
VHH: QVQLQESGGGLVQPGGSLRLSCAAFGLNFKNFDMIWFRQAPGEERDIVAAISSSSSTIWYEDSVKGRFTISRDNAKNTVYLQMNSLKPEDTAVYYCAAALTSWRRPDYWGQGTQVTVSS
modifications: Alexa Fluor 488 NHS ester label on amines
notes: Tag not specified
B9: anti-CI-M6PR VHH4 (VHH)
VHH: QVQLQESGGGLVQAGGSLRLSCAASGRTFSNYVMGWFRQAPGKEREFVGSISQGGKMTYYPDSVKGRFTISRDNAKNTMYLQMDGLKPEDTAVYYCAVSRGYPMVRVSEVDYWGQGTQVTVSS
modifications: Alexa Fluor 488 NHS ester label on amines
notes: Tag not specified
B10: anti-CI-M6PR VHH6 (VHH)
VHH: QVQLQESGGGLVQAGGSLRLSCAVSGSISSIGGMGWFRQAPGKQREFVAVILNNSGMTSYADSVKGRFTISRGNSKNTMYLQMNSLKPEDTAVYYCNYSGYWGQGTQVTVSS
modifications: Alexa Fluor 488 NHS ester label on amines
notes: Tag not specified
B11: anti-CI-M6PR VHH9 (VHH)
VHH: QVQLQESGGGLVQAGGSLRLSCAASGTILSIKTMGWYRQAPGKEREWVATITSSSIPMYADSVKGRFTISRDDAKNTVYLQMNSLKPEDTGVYYCNAPWTDYWGQGTQVTVSS
modifications: Alexa Fluor 488 NHS ester label on amines
notes: Tag not specified
B12: anti-CI-M6PR VHH10 (VHH)
VHH: QVQLQESGGGSVQAGGSLRLSCAPAGRTFSRIRMGWFRQAPGKEREFVAAISSGGLSYYADSMKGRFTISRDNAKNTVLLQMNSLEPDDTAVYYCAAVLNDYIDDYVARNPTLYDYWGQGTQVTVSS
modifications: Alexa Fluor 488 NHS ester label on amines
notes: Tag not specified
B13: anti-CI-M6PR VHH11 (VHH)
VHH: QVQLQESGGGLVQAGDSLKLSCTASGPTFSEITGGWFRQVPGKEREFVASISSTGITTYYTDSVKGRFTVSRDNAKNTMYLQMNSLKPEDTGVYYCAARSTSRSIAITVGYDYWGQGTQVTVSS
modifications: Alexa Fluor 488 NHS ester label on amines
notes: Tag not specified
B14: anti-CI-M6PR VHH1 (VHH)
VHH: QVQLQESGGGLVQPGGSLRLSCVASGFTFDRYWMNWLRQIPGKEIEWVSTINTGGTGTYYDDSVKGRFSISRDDAKNTLYLTMNSLKTEDTAVYYCARGATYYRGNSAIRGQGTQVTVSS
B15: anti-CI-M6PR VHH5 (VHH)
VHH: QVQLQESGGGLVQAGGSLKLSCAAAGRTFSRLAMGWFRQAPGKEREFVAAISENGDSIHYSDSVKGRFAVSRDNAKNTVYLQMNSLKPEDTAIYYCAADRAAYYCSGSGCYPSRAPAAASYDYWGQGTQVTVSS

The binders below were run against T1, human CI-M6PR domain1-3His6 (human, UniProt P11717 41-467) (assay: BLI, association pH 7.4, dissociation at pH 5.0, mean of local fits).
T1 construct: Recombinant, made in HEK293 cells; Biotinylated with NHS-PEG4-biotin for BLI; unlabelled in SEC-MALLS and crystallisation; also called CI-M6PR hDom1-3His6; hDom1-3His6
Method: (§1) FIGS. 9A-9E. […] BLI was performed on an Octet Red96 (FortéBio) instrument in kinetics buffer (0.2 M Na₂HPO₄, 0.1 M Na⁺citrate, 0.01% bovine serum albumin, 0.002% Tween-20). Biotinylated human domain₁₋₃His₆ was immobilized on Streptavidin SA biosensors (Sartorius) to a signal of 0.6 nm. […] Between runs, biosensors were regenerated by three times 10 s exposure to regeneration buffer (10 mM glycine pH 3). The degree of association and dissociation was measured in δ nm over time(s).
as §1, with “10A-10E.” for “9A-9E.”, “assays,” for “runs,”

In order of falling koff:
1. B4  0.041 s⁻¹
2. B6  0.033 s⁻¹
3. B5  0.029 s⁻¹
4. B2  0.02 s⁻¹
5. B1  0.019 s⁻¹
6. B3  0.019 s⁻¹

What follows are binders tested against T2, human cation-independent mannose-6-phosphate receptor on cells (human, UniProt P11717 41-2491) (assay: live-cell imaging of the uptake of AF488-labelled VHH by MCF7 cells).
T2 construct: Endogenous receptor on MCF7 cells (live-cell imaging) and HeLa cells (LYTAC assays); also called cell-surface hCI-M6PR; native hCI-M6PR
Method: For live-cell imaging, 2×10⁴ MCF7 cells/well were seeded in OptiMEM medium and incubated the next day with Lyso Tracker Deep Red DND-99 (50 nM, Thermo Fischer, L12492) for 30 minutes at 37° C., 5% CO₂ and washed with OptiMEM after which 7.5 μM AF488 labelled anti-CI-M6PR VHHs (in OptiMEM) were incubated on the cells. For every well (i.e. anti-CI-M6PR VHH), Z-stacks were taken at three different positions every six minutes, for three hours in total. Z-slices (12) were acquired per position at a step size of 1.5 μm and XY pixel size was 275 nm by 275 nm. Excitation and emission wavelengths of the fluorescent compounds used were LTR (λEx: 633 nm and λEm: 665-715 nm), AF488 (λEx: 488 nm and λEm: 520±35 nm), Hoechst/DAPI (λEx: 405 nm and λEm: 420-470 nm).

B7: no binding (tested: 7.5 µM).
B8: no binding (tested: 7.5 µM).
B9: no binding (tested: 7.5 µM).
B10: no binding (tested: 7.5 µM).
B11: no binding (tested: 7.5 µM).
B12: no binding (tested: 7.5 µM).
B13: no binding (tested: 7.5 µM).

These binders were tested against T1, human CI-M6PR domain1-3His6 (assay: BLI, association pH 7.4, dissociation at pH 6.5, mean of local fits).
Method: as §1
as §1, with “10A-10E.” for “9A-9E.”, “assays,” for “runs,”

In order of rising koff:
1. B5  0.00053 s⁻¹
2. B4  0.0011 s⁻¹
3. B6  0.0022 s⁻¹
4. B3  0.0094 s⁻¹
5. B2  0.0097 s⁻¹
6. B1  0.011 s⁻¹

What follows are binders tested against T1, human CI-M6PR domain1-3His6 (assay: BLI, biotinylated antigen on SA tips, global 1:1 fit, association at pH 7.4).
Method: (§2) Biotinylated human domain₁₋₃His₆ was immobilized on Streptavidin SA biosensors (Sartorius) to a signal of 0.6 nm. […] Between runs, biosensors were regenerated by three times 10 s exposure to regeneration buffer (10 mM glycine pH 3). The degree of association and dissociation was measured in δ nm over time(s).
as §1, with “10A-10E.” for “9A-9E.”, “assays,” for “runs,”
(§3) After loading, the tips were incubated with VHHs serially diluted in pH 7.4 kinetic buffer during the association phase and dissociation was performed at pH 7.4, pH 6.5, pH 6.0, pH 5.5 and pH 5.0. All biosensor tips were then regenerated before analysis of the subsequent VHH. Table 3 summarizes the kinetic parameters retrieved after processing and curve fitting of the BLI measurements.

In order of falling kon:
1. B2  500000 M⁻¹ s⁻¹
2. B3  470000 M⁻¹ s⁻¹
3. B1  460000 M⁻¹ s⁻¹
4. B5  450000 M⁻¹ s⁻¹
5. B6  290000 M⁻¹ s⁻¹
6. B4  220000 M⁻¹ s⁻¹

What follows are binders tested against T1, human CI-M6PR domain1-3His6 (assay: BLI, association pH 7.4, dissociation at pH 5.5, mean of local fits).
Method: as §1
as §1, with “10A-10E.” for “9A-9E.”, “assays,” for “runs,”

In order of rising koff:
1. B6  0.0041 s⁻¹
2. B5  0.0043 s⁻¹
3. B4  0.0044 s⁻¹
4. B2  0.014 s⁻¹
5. B3  0.014 s⁻¹
6. B1  0.015 s⁻¹

The binders below were run against T1, human CI-M6PR domain1-3His6 (assay: BLI, biotinylated antigen on SA tips, global 1:1 fit, dissociation at pH 7.4).
Method: as §2
as §1, with “10A-10E.” for “9A-9E.”, “assays,” for “runs,”
as §3

In order of falling Kd:
1. B2  14.1 nM
2. B1  14 nM
3. B3  13.6 nM
4. B4  3.07 nM
5. B6  1.76 nM
6. B5  1.06 nM

In order of falling koff:
1. B2  0.0071 s⁻¹
2. B1  0.0064 s⁻¹
3. B3  0.0064 s⁻¹
4. B4  0.00067 s⁻¹
5. B6  0.00051 s⁻¹
6. B5  0.00048 s⁻¹

These binders were tested against T2, human cation-independent … (assay: cell-based or functional assay).

In order of rising “internalisation rate (live-cell imaging of AF488-VHH on MCF7 cells)” value:
1. B15  687000 summed AF-voxels/minute
2. B14  1.38e+06 summed AF-voxels/minute

These binders were tested against T1, human CI-M6PR domain1-3His6 (assay: BLI, association pH 7.4, dissociation at pH 6.0, mean of local fits).
Method: as §1
as §1, with “10A-10E.” for “9A-9E.”, “assays,” for “runs,”

In order of falling koff:
1. B1  0.013 s⁻¹
2. B2  0.012 s⁻¹
3. B3  0.011 s⁻¹
4. B6  0.002 s⁻¹
5. B4  0.0015 s⁻¹
6. B5  0.0015 s⁻¹
